Assay [1] deals with T1, BSA (UniProt P02769 25-607).
T1 construct: Negative control antigen; also called BSA(陰性対照、シグマ社)
The experiment in a line: ELISA, BSA on the plate, anti-V5 detection. On the technique in general: An ELISA detects its analyte on a solid surface through an enzyme-linked reagent.

Assay [2] addresses T2, 組換えヒトLOX−1タンパク質(61−273aa) (human, UniProt P78380 61-273). Kind of assay: ELISA on LOX-1 (61-273), anti-V5 detection; 4-parameter logistic fit.
Assay [3] deals with T2, 組換えヒトLOX−1タンパク質(61−273aa). The experiment in a line: ELISA, LOX-1 (61-273) on the plate, HRP anti-mouse IgG detection.
The target in assay [4] is T1, BSA. The experiment in a line: ELISA, BSA on the plate.

The source of these data is patent JP2012100585A (dated 2012).

T1 sequence (P02769 25-607 limits assumed): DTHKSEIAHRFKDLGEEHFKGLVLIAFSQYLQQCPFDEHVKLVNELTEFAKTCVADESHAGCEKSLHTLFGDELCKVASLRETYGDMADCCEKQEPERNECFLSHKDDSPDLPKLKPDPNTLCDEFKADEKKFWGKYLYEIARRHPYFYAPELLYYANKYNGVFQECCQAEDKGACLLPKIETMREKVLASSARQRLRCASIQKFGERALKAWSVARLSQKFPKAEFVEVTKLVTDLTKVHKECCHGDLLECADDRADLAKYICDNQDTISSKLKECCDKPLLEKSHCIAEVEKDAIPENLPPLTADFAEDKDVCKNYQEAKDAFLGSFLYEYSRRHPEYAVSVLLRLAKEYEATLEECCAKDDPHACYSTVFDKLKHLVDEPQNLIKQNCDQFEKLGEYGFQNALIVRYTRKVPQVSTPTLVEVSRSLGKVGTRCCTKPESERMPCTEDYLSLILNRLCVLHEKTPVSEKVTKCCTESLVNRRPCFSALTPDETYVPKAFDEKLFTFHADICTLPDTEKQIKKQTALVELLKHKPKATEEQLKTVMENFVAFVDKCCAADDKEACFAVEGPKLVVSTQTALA

B1: Fv型抗LOX−1抗体−ApoB断片融合タンパク質 Fv−B2 (other)
chain: EVKLLESGGGLVQPGGSLKLSCAVSGFDFSRYWMSWVRQAPGKGLEWIGEINPDSSTINFTPSLKDKFIVSRDNAKNTLYLQMSKVRSEDTALYYCARNDVLLGAMDYWGQGTSVTVSSGGGGSGGGGSGGGGSDVLMTQTPLSLPVSLGDQASISCRSSQTIVHSNGKTYLEWYLQKPGQSPKLLIYKVSNRFSGVPDRFSGSGSGTDFTLKISRVEAEDLGVYYCFQGSHVPLTFGAGTKLELKREIFNMARDQRSRATLYALSHAVNNYHKTNPTGTQELLDIANYLMEQIQDDCTGDEDYTYLILRVIGNMGQTMEQLTPELKSSILKCVQSTKPSLMIQKAAIQALRKMEPKDKDQEVLLQTFLDDASPGDKRLAAYLMLMRSPSQADINKIVQILPWEQNEQVKNFVASH
notes: Fusion of scFv (C-terminus) to ApoB fragment (N-terminus) through a linker; FreeStyle 293, His-tag purified; not shown: C-terminal V5 and 6xHis tag from the pEF6/V5/His vector
Take B1: the binding result with BSA [1] is listed as “no binding (tested: 1.6ng/mL〜100μg/mL)”. Also, the “fold higher inflection-point concentration against Fv型抗体” value in assay [2] was ~27 倍.

B2: Fv型抗LOX−1抗体−ApoB断片融合タンパク質 Fv−B4 (other)
chain: EVKLLESGGGLVQPGGSLKLSCAVSGFDFSRYWMSWVRQAPGKGLEWIGEINPDSSTINFTPSLKDKFIVSRDNAKNTLYLQMSKVRSEDTALYYCARNDVLLGAMDYWGQGTSVTVSSGGGGSGGGGSGGGGSDVLMTQTPLSLPVSLGDQASISCRSSQTIVHSNGKTYLEWYLQKPGQSPKLLIYKVSNRFSGVPDRFSGSGSGTDFTLKISRVEAEDLGVYYCFQGSHVPLTFGAGTKLELKGPQMSASVHLDSKKKQHLFVKEVKIDGQFRVSSFYAKGTYGLSCQRDPNTGRLNGESNLRFNSSYLQGTNQITGRYEDGTLSLTSTSDLQS
notes: as for B1
Turning to B2, the binding result in the assay with BSA [1] is reported as “no binding (tested: 1.6ng/mL〜100μg/mL)”. Moreover, in assay [2], the “fold higher inflection-point concentration against Fv型抗体” value is ~7 倍.

B3: Fv型抗LOX−1抗体−ApoB断片融合タンパク質 Fv−B3 (other)
chain: EVKLLESGGGLVQPGGSLKLSCAVSGFDFSRYWMSWVRQAPGKGLEWIGEINPDSSTINFTPSLKDKFIVSRDNAKNTLYLQMSKVRSEDTALYYCARNDVLLGAMDYWGQGTSVTVSSGGGGSGGGGSGGGGSDVLMTQTPLSLPVSLGDQASISCRSSQTIVHSNGKTYLEWYLQKPGQSPKLLIYKVSNRFSGVPDRFSGSGSGTDFTLKISRVEAEDLGVYYCFQGSHVPLTFGAGTKLELKTSGAYSNASSTDSASYYPLTGDTRLELELRPTGEIEQYSVSATYELQREDRALVDTLKFVTQAEGAKQTEATMTFKYNRQSMTLSSE
notes: as for B1
For B3, the binding result with BSA [1] is on record as “no binding (tested: 1.6ng/mL〜100μg/mL)”.

B4: Fv型抗LOX−1抗体 (scFv)
scFv: EVKLLESGGGLVQPGGSLKLSCAVSGFDFSRYWMSWVRQAPGKGLEWIGEINPDSSTINFTPSLKDKFIVSRDNAKNTLYLQMSKVRSEDTALYYCARNDVLLGAMDYWGQGTSVTVSSGGGGSGGGGSGGGGSDVLMTQTPLSLPVSLGDQASISCRSSQTIVHSNGKTYLEWYLQKPGQSPKLLIYKVSNRFSGVPDRFSGSGSGTDFTLKISRVEAEDLGVYYCFQGSHVPLTFGAGTKLELK
notes: VH gene was amplified with the #10-1 heavy chain secretion signal; Expressed in FreeStyle 293, purified by His tag; also called Fv型抗体; Fv; not shown: C-terminal V5 and 6xHis tag from the pEF6/V5/His vector
As to B4, the binding result with BSA [1] is “no binding (tested: 抗体濃度2ng/mL〜100μg/mL)”.

B5: Fv型抗LOX−1抗体−ApoB断片融合タンパク質 Fv−B1 (other)
chain: EVKLLESGGGLVQPGGSLKLSCAVSGFDFSRYWMSWVRQAPGKGLEWIGEINPDSSTINFTPSLKDKFIVSRDNAKNTLYLQMSKVRSEDTALYYCARNDVLLGAMDYWGQGTSVTVSSGGGGSGGGGSGGGGSDVLMTQTPLSLPVSLGDQASISCRSSQTIVHSNGKTYLEWYLQKPGQSPKLLIYKVSNRFSGVPDRFSGSGSGTDFTLKISRVEAEDLGVYYCFQGSHVPLTFGAGTKLELKEEEMLENVSLVCPKDATRFKHLRKYTYNYEAESSSGVPGTADSRSATRINCKVELEVPQLCSFILKTSQCTLKEVYGFNPEGKALLKKTKNSEEFAAAMSRYELKLAIPEGKQVFLYPEKDEPTYILNIKRGIISALLVPPETEEAKQVLFLDTVYGNCSTHFTVKTRKGNVATEISTERDLGQCDRFKP
notes: as for B1
In the case of B5, in the assay with BSA [1], the binding result was “no binding (tested: 1.6ng/mL〜100μg/mL)”.

B6: マウス抗LOX−1モノクローナル抗体#10−1 (antibody, V domains shown)
VH: EVKLLESGGGLVQPGGSLKLSCAVSGFDFSRYWMSWVRQAPGKGLEWIGEINPDSSTINFTPSLKDKFIVSRDNAKNTLYLQMSKVRSEDTALYYCARNDVLLGAMDYWGQGTSVTVSS
VL: DVLMTQTPLSLPVSLGDQASISCRSSQTIVHSNGKTYLEWYLQKPGQSPKLLIYKVSNRFSGVPDRFSGSGSGTDFTLKISRVEAEDLGVYYCFQGSHVPLTFGAGTKLELK
notes: also called 抗LOX−1抗体#10−1; マウス抗LOX−1抗体#10−1のIgG型
B6: the binding result in assay [3] is “binds”; with BSA [4], “no binding (tested: 抗体濃度2ng/mL〜100μg/mL)”.
